The source of these data is patent publication US20230038638A1, “COMPLEMENT FACTOR I-RELATED COMPOSITIONS AND METHODS” (published 2023).

For test [1], the target named is soluble human C3b (human) (UniProt P01024).
Test [2] addresses T1, human C4b (human) (UniProt P0C0L4).
T1 sequence: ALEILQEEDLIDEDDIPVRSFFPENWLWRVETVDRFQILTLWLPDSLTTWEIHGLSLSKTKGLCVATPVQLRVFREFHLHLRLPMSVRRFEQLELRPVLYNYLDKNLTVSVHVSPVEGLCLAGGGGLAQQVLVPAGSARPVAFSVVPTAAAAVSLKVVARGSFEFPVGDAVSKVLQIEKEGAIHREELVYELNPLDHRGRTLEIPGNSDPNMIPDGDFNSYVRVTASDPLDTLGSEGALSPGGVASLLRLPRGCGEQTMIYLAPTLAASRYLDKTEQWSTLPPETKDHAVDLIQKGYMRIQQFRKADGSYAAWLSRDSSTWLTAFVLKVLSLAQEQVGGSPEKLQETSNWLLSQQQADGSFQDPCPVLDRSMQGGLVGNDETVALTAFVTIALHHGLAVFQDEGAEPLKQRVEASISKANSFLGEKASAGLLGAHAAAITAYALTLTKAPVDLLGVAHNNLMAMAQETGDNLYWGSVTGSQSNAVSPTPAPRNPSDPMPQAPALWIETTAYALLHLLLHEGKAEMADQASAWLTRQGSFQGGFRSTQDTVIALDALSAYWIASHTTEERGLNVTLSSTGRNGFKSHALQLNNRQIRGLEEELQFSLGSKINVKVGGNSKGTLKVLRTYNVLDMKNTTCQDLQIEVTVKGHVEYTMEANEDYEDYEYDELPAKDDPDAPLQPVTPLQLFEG

As for CFI-HSA variant E457G; N531G (enzyme), the iC3b EC50 in test [1] turned out to be 6.5 nM. In test [2], this substance returned a C4c EC50 of 11.2 nM.

As for “CFI-HSA variant E457G; N531G; D425R; E530Y (enzyme)”, the iC3b EC50 in test [1] worked out at 4.4 nM. In test [2], this substance yielded a C4c EC50 (nM) of 16.4 nM.

Substance “CFI-HSA variant E457G; N531G; E461Q; R462K; F464Y; E530Y (enzyme)” yielded an iC3b EC50 in test [1] of 3.5 nM. The substance also had a C4c EC50 (nM) in test [2] of 7.8 nM.

The substance “CFI-HSA variant E457G; N531G; E461Q; R462K; F464Y; GGSSGG (SEQ ID NO: 6); CR1 (ccp15-17) (from UniProt P17927) (enzyme)” came in with an iC3b EC50 in test [1] of 32.7 nM. Moreover, the C4c EC50 (nM) in test [2] was found to be 43.1 nM.

As for “CFI-HSA variant E457G; N531G; E530Y (enzyme)”, the iC3b EC50 in test [1] was 5 nM. For the same substance, the C4c EC50 (nM) in test [2] was determined as 13 nM.

“CFI-HSA variant E457G; N531G; P535G; WT; GGSSGG (SEQ ID NO: 6); CR1(ccp15-17) (enzyme)”: in test [1], the iC3b EC50 stood at 14.3 nM. In addition, the C4c EC50 in test [2] amounted to 44.4 nM.

With “CFI-HSA variant E457G; N531G; WT; GGSSGG (SEQ ID NO: 6); CR1(ccp15-17) (enzyme)”, in test [1], the iC3b EC50 came out at 28.1 nM. The C4c EC50 in test [2] was 29.1 nM.

“CFI-HSA variant E457G; WT; GGSSGG (SEQ ID NO: 6); CR1(ccp15-17) (enzyme)” came in with an iC3b EC50 in test [1] of 21.6 nM. Moreover, the C4c EC50 in test [2] was 42.3 nM.

CFI-HSA variant F464P (enzyme) displayed an iC3b EC50 in test [1] greater than 500 nM. The C4c EC50 in test [2] is greater than 1000 nM.

Regarding CFI-HSA variant H370G (enzyme), the iC3b EC50 in test [1] came out at 80.8 nM. In test [2], this substance registered a C4c EC50 (nM) greater than 1000 nM.

For the substance “CFI-HSA variant K504D; Y408L; N531G (enzyme)”, the iC3b EC50 in test [1] amounted to 20.9 nM. Further, the C4c EC50 in test [2] was 242 nM.

As to “CFI-HSA variant K504E; Y408L; N531G (enzyme)”, in test [1], the iC3b EC50 stood at 19.4 nM. The same substance displayed a C4c EC50 in test [2] of 120 nM.

In test [1], CFI-HSA variant K534H (enzyme) returned an iC3b EC50 of 15.7 nM. The same substance displayed a C4c EC50 in test [2] of 104 nM.

Consider CFI-HSA variant L307A (enzyme), for which the iC3b EC50 in test [1] was found to be 17.1 nM. In test [2], this substance registered a C4c EC50 of 93.4 nM.

Take CFI-HSA variant L307S (enzyme): the iC3b EC50 in test [1] turned out to be 18.4 nM. The C4c EC50 in test [2] was 54.1 nM.

Substance “CFI-HSA variant N531G; E457G; E461Q; R462K (enzyme)” had an iC3b EC50 in test [1] of 5.9 nM. Moreover, the C4c EC50 in test [2] is 18.4 nM.

Substance “CFI-HSA variant N531G; E457G; E461Q; R557A (enzyme)” returned an iC3b EC50 in test [1] of 19.1 nM. In addition, the C4c EC50 (nM) in test [2] was determined as 25 nM.

“CFI-HSA variant N531G; E457G; E461Q; R557K (enzyme)” came in with an iC3b EC50 in test [1] of 8.3 nM. For the same substance, the C4c EC50 (nM) in test [2] worked out at 23.2 nM.

In test [1], “CFI-HSA variant N531G; E457G; E461Q; ΔC-term (Δ558-PFISQYNV (SEQ ID NO: 14)-565) (enzyme)” registered an iC3b EC50 of 97.1 nM. Besides, in test [2], the C4c EC50 (nM) was determined as 51.1 nM.

In turn, “CFI-HSA variant N531G; E457G; F464Y (enzyme)” had an iC3b EC50 in test [1] of 7 nM. Moreover, the C4c EC50 in test [2] was 16.4 nM.

For “CFI-HSA variant N531G; E457G; R462K (enzyme)”, in test [1], the iC3b EC50 worked out at 7.7 nM. Further, the C4c EC50 in test [2] turned out to be 17.3 nM.

In test [1], CFI-HSA variant N531G; E461Q (enzyme) came in with an iC3b EC50 of 5.4 nM. Also, the C4c EC50 in test [2] was 24.2 nM.

In test [1], “CFI-HSA variant N531G; E461Q; R462K (enzyme)” yielded an iC3b EC50 of 5.3 nM. For the same substance, in test [2], the C4c EC50 worked out at 38.7 nM.

In turn, “CFI-HSA variant N531G; P535A; GGSSGG (SEQ ID NO: 6); CR1(ccp15-17) (enzyme)” yielded an iC3b EC50 in test [1] of 20.4 nM. In addition, the C4c EC50 in test [2] came out at 60.1 nM.

“CFI-HSA variant N531G; P535A; R557A (enzyme)” registered an iC3b EC50 in test [1] of 47.5 nM. Further, the C4c EC50 (nM) in test [2] worked out at 28.2 nM.

Substance “CFI-HSA variant N531G; P535A; R557K (enzyme)” registered an iC3b EC50 in test [1] of 17 nM. This substance also showed a C4c EC50 (nM) in test [2] of 52.2 nM.

On to “CFI-HSA variant N531G; WT; GGSSGG (SEQ ID NO: 6); CR1(ccp15-17) (enzyme)”, for which, in test [1], the iC3b EC50 was determined as 36.7 nM. In addition, in test [2], the C4c EC50 was 60 nM.

Turning to CFI-HSA variant R365A (enzyme), the iC3b EC50 in test [1] came to 64.3 nM. Moreover, the C4c EC50 (nM) in test [2] is greater than 1000 nM.

For CFI-HSA variant R462K; F464Y (enzyme), the iC3b EC50 in test [1] came out at 106 nM. This substance also registered a C4c EC50 in test [2] greater than 1000 nM.

As for CFI-HSA variant R557D (enzyme), in test [1], the iC3b EC50 is greater than 500 nM. The substance also returned a C4c EC50 (nM) in test [2] of 148 nM.

As for CFI-HSA variant R557E (enzyme), the iC3b EC50 in test [1] was greater than 500 nM. The same substance returned a C4c EC50 (nM) in test [2] of 151 nM.

As to CFI-HSA variant R557F (enzyme), the iC3b EC50 in test [1] amounted to 168 nM. Besides, in test [2], the C4c EC50 (nM) was 145 nM.

CFI-HSA variant R557G (enzyme) registered an iC3b EC50 in test [1] greater than 500 nM. In addition, in test [2], the C4c EC50 (nM) was 143 nM.

For CFI-HSA variant R557H (enzyme), the iC3b EC50 in test [1] was 198 nM. For the same substance, the C4c EC50 (nM) in test [2] was found to be 98.8 nM.

In turn, CFI-HSA variant R557I (enzyme) came in with an iC3b EC50 in test [1] of 128 nM. This substance displayed a C4c EC50 (nM) in test [2] of 117 nM.

CFI-HSA variant R557L (enzyme): the iC3b EC50 in test [1] worked out at 113 nM. This substance gave a C4c EC50 (nM) in test [2] of 177 nM.

Substance CFI-HSA variant R557M (enzyme) gave an iC3b EC50 in test [1] of 164 nM. This substance also yielded a C4c EC50 (nM) in test [2] of 82 nM.

In turn, CFI-HSA variant R557N (enzyme) came in with an iC3b EC50 in test [1] of 360 nM. In test [2], this substance yielded a C4c EC50 (nM) of 154 nM.

As for CFI-HSA variant R557P (enzyme), the iC3b EC50 in test [1] was found to be 288 nM. The substance also came in with a C4c EC50 (nM) in test [2] of 96.3 nM.

In test [1], CFI-HSA variant R557Q (enzyme) had an iC3b EC50 of 286 nM. This substance showed a C4c EC50 (nM) in test [2] of 120 nM.

Substance CFI-HSA variant R557S (enzyme) displayed an iC3b EC50 in test [1] of 208 nM. Also, the C4c EC50 (nM) in test [2] was found to be 247 nM.

Turning to CFI-HSA variant R557T (enzyme), the iC3b EC50 in test [1] stood at 217 nM. This substance displayed a C4c EC50 (nM) in test [2] of 324 nM.

CFI-HSA variant R557V (enzyme) yielded an iC3b EC50 in test [1] of 165 nM. The substance further yielded a C4c EC50 (nM) in test [2] of 138 nM.

Take CFI-HSA variant R557W (enzyme): in test [1], the iC3b EC50 came to 198 nM. Besides, the C4c EC50 (nM) in test [2] is 165 nM.

CFI-HSA variant R557Y (enzyme): the iC3b EC50 in test [1] came to 116 nM. In test [2], this substance came in with a C4c EC50 (nM) of 145 nM.

In turn, CFI-HSA variant T377G; E457G (enzyme) had an iC3b EC50 in test [1] of 5.9 nM. Further, the C4c EC50 (nM) in test [2] was found to be 20.7 nM.

On to “CFI-HSA variant T377G; E457G; E461Q (enzyme)”, for which the iC3b EC50 in test [1] turned out to be 4.5 nM. In test [2], this substance showed a C4c EC50 (nM) of 14.9 nM.

“CFI-HSA variant T377G; E457G; E461Q; N531G (enzyme)”: the iC3b EC50 in test [1] is 4.3 nM. Also, the C4c EC50 (nM) in test [2] is 10.9 nM.

The substance CFI-HSA variant T377G; E461Q (enzyme) registered an iC3b EC50 in test [1] of 6.5 nM. In test [2], the C4c EC50 (nM) came out at 28.4 nM.

Take CFI-HSA variant T377G; N531G (enzyme): the iC3b EC50 in test [1] is 6.6 nM. For the same substance, the C4c EC50 (nM) in test [2] was determined as 19.2 nM.
